Data on 3 substances can be found in FireProtDB (doi:10.1021/bi973006i).

For this data set the following is noted: Thermal, reversible: yes.
[1] abbreviates: Methanobacterium formicicum, pH 2, DSC, glycine 25 mM, KCl 1.0 M.
[2] abbreviates: Methanobacterium formicicum, pH 3, DSC, glycine 25 mM, KCl 1.0 M.
Where [3] appears, read: Methanobacterium formicicum, pH 4, DSC, glycine 25 mM, KCl 0.2 M.
Setting [4] is: Methanobacterium formicicum, pH 4, DSC, glycine 25 mM, KCl 1.0 M.
The mark [5] stands for this setting: Methanobacterium formicicum, pH 5, DSC, acetate 25 mM, KCl 0.2 M.
Where [6] appears, read: Methanobacterium formicicum, pH 5, DSC, acetate 25 mM, KCl 1.0 M.
Where [7] appears, read: Methanobacterium formicicum, pH 6, DSC, MES 25 mM, KCl 0.2 M.
[8] abbreviates: Methanobacterium formicicum, pH 6, DSC, MES 25 mM, KCl 1.0 M.
Setting [9] is: Methanothermus fervidus, pH 3, DSC, glycine 25 mM, KCl 0.2 M.
The mark [10] stands for this setting: Methanothermus fervidus, pH 4, DSC, glycine 25 mM, KCl 0.2 M.
The mark [11] stands for this setting: Methanothermus fervidus, pH 5, DSC, acetate 25 mM, KCl 0.2 M.
Where [12] appears, read: Methanothermus fervidus, pH 6, DSC, MES 25 mM, KCl 0.2 M.

Values joined by “and” are separate entries in the source; they are usually repeats but may differ in a detail not shown here. Equal values may be shown once.

Sequence of Archaeal histone A1 wild type, P48782 (P48782 whole entry): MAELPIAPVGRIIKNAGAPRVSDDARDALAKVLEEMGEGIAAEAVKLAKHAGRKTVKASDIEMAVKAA
Sequence of Archaeal histone B wild type, O59627 (O59627 whole entry): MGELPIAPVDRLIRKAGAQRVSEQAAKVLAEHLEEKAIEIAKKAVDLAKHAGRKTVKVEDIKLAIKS
Sequence of DNA-binding protein HMf-1 wild type, P48781 (P48781 whole entry): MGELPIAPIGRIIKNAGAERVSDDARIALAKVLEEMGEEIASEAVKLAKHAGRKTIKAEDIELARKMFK

As to Archaeal histone A1 wild type, P48782, the Tm amounted to 60.3 °C (Methanobacterium formicicum, pH 2, CD, glycine 25 mM, KCl 1.0 M); 64.7 °C under setting [1]; 73 °C (Methanobacterium formicicum, pH 3, CD, glycine 25 mM, KCl 1.0 M); 77 °C under setting [2]; 91.5 °C (Methanobacterium formicicum, pH 4, CD, glycine 25 mM, KCl 1.0 M); 75.6 °C under setting [3]. In addition, the Tm by setting is: under setting [4], 90.3 °C; (Methanobacterium formicicum, pH 5, CD, acetate 25 mM, KCl 0.2 M) 74.8 °C; (Methanobacterium formicicum, pH 5, CD, acetate 25 mM, KCl 1.0 M) 92 °C; under setting [5], 76.9 °C; under setting [6], 90.9 °C; (Methanobacterium formicicum, pH 6, CD, MES 25 mM, KCl 0.2 M) 70.9 °C. Moreover, the Tm runs as follows: under setting [7], 76.5 °C; under setting [8], 90.5 °C. The “unfolding enthalpy (calorimetric)” value was found to be 10.5 kcal/mol under setting [1]; 35.4 kcal/mol under setting [2]; 45.6 kcal/mol under setting [3]; 47.1 kcal/mol under setting [4]; 36.9 kcal/mol under setting [5]; 41 kcal/mol under setting [6]. Further, the “unfolding enthalpy (calorimetric)” value under setting [7] was determined as 63.9 kcal/mol and the “unfolding enthalpy (calorimetric)” value under setting [8] worked out at 50.4 kcal/mol. Also, the “unfolding enthalpy (van 't Hoff)” value is 115 kcal/mol under setting [1]; 109 kcal/mol under setting [2]; 91.1 kcal/mol under setting [3]; 129 kcal/mol under setting [4]; 114 kcal/mol under setting [5]; 124 kcal/mol under setting [6]. The “unfolding enthalpy (van 't Hoff)” value was 94.9 kcal/mol under setting [7] and 122 kcal/mol under setting [8].
In the case of Archaeal histone B wild type, O59627, the Tm runs as follows: (Pyrococcus furiosus (strain ATCC 43587 / DSM 3638 / JCM 8422 / Vc1), pH 4, CD, glycine 25 mM, KCl 0.2 M) 107 °C; (Pyrococcus furiosus (strain ATCC 43587 / DSM 3638 / JCM 8422 / Vc1), pH 5, CD, acetate 25 mM, KCl 0.2 M) 114 °C; (Pyrococcus furiosus (strain ATCC 43587 / DSM 3638 / JCM 8422 / Vc1), pH 7.5, CD, phosphate 25 mM, KCl 0.2 M) 110 °C.
In the case of “DNA-binding protein HMf-1 wild type, P48781”, the Tm was 94 °C (Methanothermus fervidus, pH 2, CD, glycine 25 mM, KCl 1.0 M); 78.2 °C (Methanothermus fervidus, pH 2.5, CD, glycine 25 mM, KCl 0.2 M); 84.9 °C (Methanothermus fervidus, pH 2.7, CD, glycine 25 mM, KCl 0.2 M); 84.6 °C and 89.3 °C (Methanothermus fervidus, pH 3, CD, glycine 25 mM, KCl 0.2 M); 101 °C (Methanothermus fervidus, pH 3, CD, glycine 25 mM, KCl 1.0 M); 96.1 °C under setting [9]. Also, the Tm was 94.1 °C (Methanothermus fervidus, pH 3.3, CD, glycine 25 mM, KCl 0.2 M); 103 °C (Methanothermus fervidus, pH 3.7, CD, glycine 25 mM, KCl 0.2 M); 100 °C and 103 °C (Methanothermus fervidus, pH 4, CD, glycine 25 mM, KCl 0.2 M); 97.6 °C under setting [10]; 104 °C under setting [11]; 101 °C under setting [12]. Besides, the “unfolding enthalpy (calorimetric)” value was found to be 14.1 kcal/mol under setting [9], 41.3 kcal/mol under setting [10], 37.3 kcal/mol under setting [11] and 44.5 kcal/mol under setting [12]. In addition, the “unfolding enthalpy (van 't Hoff)” value was found to be 139 kcal/mol under setting [9], 158 kcal/mol under setting [10], 164 kcal/mol under setting [11] and 158 kcal/mol under setting [12].
